From PMC1447668, “Foxp3 Represses Retroviral Transcription by Targeting Both NF-κB and CREB Pathways” (PLoS Pathogens, 2006)

Biological target: cAMP-responsive element binding protein CREB-1 (UniProt P16220 1-327)
Test: cell-based or functional assay

Chain of cAMP-responsive element binding protein CREB-1 (P16220 whole entry): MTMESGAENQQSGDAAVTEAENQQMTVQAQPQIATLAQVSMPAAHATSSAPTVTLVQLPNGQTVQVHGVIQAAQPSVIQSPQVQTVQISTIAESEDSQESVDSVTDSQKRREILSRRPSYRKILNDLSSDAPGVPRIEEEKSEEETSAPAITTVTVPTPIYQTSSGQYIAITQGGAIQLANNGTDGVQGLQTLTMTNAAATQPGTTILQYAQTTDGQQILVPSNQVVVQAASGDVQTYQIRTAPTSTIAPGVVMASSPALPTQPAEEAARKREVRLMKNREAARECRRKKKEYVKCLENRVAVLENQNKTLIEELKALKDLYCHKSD

B1: human Foxp3 (natural protein, UniProt Q9BZS1 1-431, looked up)
chain: MPNPRPGKPSAPSLALGPSPGASPSWRAAPKASDLLGARGPGGTFQGRDLRGGAHASSSSLNPMPPSQLQLPTLPLVMVAPSGARLGPLPHLQALLQDRPHFMHQLSTVDAHARTPVLQVHPLESPAMISLTPPTTATGVFSLKARPGLPPGINVASLEWVSREPALLCTFPNPSAPRKDSTLSAVPQSSYPLLANGVCKWPGCEKVFEEPEDFLKHCQADHLLDEKGRAQCLLQREMVQSLEQQLVLEKEKLSAMQAHLAGKMALTKASSVASSDKGSCCIVAAGSQGPVVPAWSGPREAPDSLFAVRRHLWGSHGNSTFPEFLHNMDYFKFHNMRPPFTYATLIRWAILEAPEKQRTLNEIYHWFTRMFAFFRNHPATWKNAIRHNLSLHKCFVRVESEKGAVWTVDELEFRKKRSQRPSRCSNPTPGP
basal levels of Gal4-BD-CREB-1 activation of a Gal4 luciferase reporter in HEK 293T cells with Foxp3 overexpressed (Figure 7C): > 2 fold
